Laboratory results taken from publication PMC3871816, “The Arabidopsis adaptor protein AP-3µ interacts with the G-protein β subunit AGB1 and is involved in abscisic acid regulation of germination and post-germination development” (Journal of Experimental Botany, 2013).

Target: T1, GST-fused AP-3µ (Arabidopsis thaliana, UniProt F4I562 1-415)
T1 construct: AP-3µ of Arabidopsis thaliana; construction is in Supplementary Method S2, induction and purification in Supplementary Method S3; also called GST-AP-3µ; pGEX-5X-AP-3µ
T1 sequence (looked up): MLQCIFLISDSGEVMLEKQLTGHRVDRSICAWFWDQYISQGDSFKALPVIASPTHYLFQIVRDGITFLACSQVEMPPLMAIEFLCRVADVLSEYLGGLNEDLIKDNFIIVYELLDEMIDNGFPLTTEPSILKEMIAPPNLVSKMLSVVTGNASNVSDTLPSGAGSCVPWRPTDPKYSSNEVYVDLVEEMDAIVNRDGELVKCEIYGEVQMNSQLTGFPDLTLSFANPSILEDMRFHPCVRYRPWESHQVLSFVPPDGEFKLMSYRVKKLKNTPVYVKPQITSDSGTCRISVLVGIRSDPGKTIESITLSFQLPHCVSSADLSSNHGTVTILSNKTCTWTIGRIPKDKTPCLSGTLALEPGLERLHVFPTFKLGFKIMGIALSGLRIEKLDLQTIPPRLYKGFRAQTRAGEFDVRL
Test: pull-down; GST-AP-3µ or GST-AP-3µ^DN bound to Glutathione Sepharose 4 Fast Flow, washed with PBS, incubated with purified His-AGB1 at room temperature for 60 min; eluted with 20 mM reduced glutathione; immunoblot with anti-GST and HisProbe-HRP
Settings: both partners purified

B1: Polyhistidine-tagged AGB1 (natural protein, Arabidopsis thaliana, UniProt P49177 1-377, looked up)
chain: MSVSELKERHAVATETVNNLRDQLRQRRLQLLDTDVARYSAAQGRTRVSFGATDLVCCRTLQGHTGKVYSLDWTPERNRIVSASQDGRLIVWNALTSQKTHAIKLPCAWVMTCAFSPNGQSVACGGLDSVCSIFSLSSTADKDGTVPVSRMLTGHRGYVSCCQYVPNEDAHLITSSGDQTCILWDVTTGLKTSVFGGEFQSGHTADVLSVSISGSNPNWFISGSCDSTARLWDTRAASRAVRTFHGHEGDVNTVKFFPDGYRFGTGSDDGTCRLYDIRTGHQLQVYQPHGDGENGPVTSIAFSVSGRLLFAGYASNNTCYVWDTLLGEVVLDLGLQQDSHRNRISCLGLSADGSALCTGSWDSNLKIWAFGGHRRVI
notes: AGB1, G-protein β subunit of Arabidopsis thaliana; His-AGG1 is named in the same sentence but in no result; also called His-AGB1; His-tagged AGB1; source: E. coli, purified
B1: binds.
